Measured values published in the supplement of paper PMC10567573.

B1: PCMTD2 (parent)
chain: FFIRTSDSFDKFDFCEPSFVTGNC
B2: RPAIN (parent)
chain: ISEYEKSLQFDEKCLSIMLAEWEA

Variants of: B1
Experiment: protein stability index of a GFP-peptide fusion (GPS, HEK-293T) (PSI 1-6); higher = more stable
Conditions: c terminus: a fixed tail appended
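Further: lentivirally expressed fusions sorted by FACS into six bins by GFP to DsRed ratio, PSI derived from sequencing read proportions per bin multiplied by bin number.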

Protein stability index, by site and new letter:
C15: A 2.24; F 3.17; M 1.98; W 2.31; K 2.43; D 2.14; V 2.05; N 2.98; P 3.43; S 2.04; T 2.3; Y 3.03; H 2.62
R4: T 3.27; L 2.8; H 2.45; E 2.12; Y 2.93; C 3.1; P 1.85; K 1.99; N 1.65; F 2.52; D 2.08; M 4.34; A 3.21; W 4.04
F19: P 1.92; H 1.25; A 1.69; L 2.26; G 2.16; V 2.06; K 1.95; C 1.49; D 2.11; T 2.04; Q 1.91
D10: F 3.53; G 2.61; C 3.08; Q 2.54; V 3.82; W 3.23; R 2.56; N 2.72; K 3.06; I 2.31; S 2.22; P 2.94
F2: V 3.17; H 1.89; S 2.01; P 2.13; G 2.41; C 1.92; Q 2.06; M 1.81
S8: Y 3.02; A 2.85; W 4; T 1.61; K 1.72; R 2.44; H 3.25; D 1.95; I 2.54; M 1.94; N 2.13; L 3.06; Q 3.03
V20: I 2.54; L 3.22; M 2.5; N 2.73; R 2.53; T 2.58; W 2.15; H 2.32; F 3; A 2.2
F9: L 2.12; Y 2.82; I 2.47; M 2.99; D 2.03; T 1.7; W 2.6; A 1.95; S 1.66; P 1.28; N 2.18; C 2.04
T5: V 3.03; M 2.69; A 3.25; W 2.53
F14: A 2.31; L 1.91; I 2.31; V 2.05; T 2.5; N 2.27; Q 1.89; M 2.1; W 2.71
S18: A 1.76; D 2.42; T 2.54; N 2.91; K 3.26; W 3.1; H 3.19; E 2.4; C 3.71; G 2.81; I 2.48
T21: W 2.76; L 3.84; Q 2.22; M 3.19; N 2.27; A 2.61; D 1.71; Y 2.49; P 3.61; H 1.47
F12: C 2.74; R 1.77; V 2.47; I 2.05; G 2.05; H 2.07; S 1.71; K 1.99; L 3.58; T 2.22; E 1.92; Y 2.79; Q 1.69; A 2.4
S6: P 2.53; E 1.99; F 2.43; H 2.91; I 2.29; N 3.26; T 3.34; R 3.11; V 2.23; Q 3.19
D13: Y 1.6; A 2.99; T 3.18; H 2.47; C 2.21; K 2.85; N 2.42; V 3.37; R 2.26; P 2.4; Q 3.23
C24: R 2.27; S 2.78; E 2.04; Y 2.53; T 2.24; Q 2.85; F 3.29; N 1.47; H 2.43
G22: A 2; T 2.24; V 4.43; W 3.23; N 2.16; K 2.1; S 2.07; Q 2.74; P 3.09; C 2.71; L 2.03; M 3.08
P17: Q 2.51; M 2.69; S 2.03; E 2.18; N 2.05; L 3.54; T 3.13; V 4.75; D 1.47; G 2.03
E16: H 3.4; P 1.87; A 2.25; D 2.87; Y 3.4; M 3.1
I3: D 2.56; A 1.55; C 1.81; E 2.04; P 1.9; Y 1.81; S 1.8; K 2.07; V 2.18; H 2
F1: V 2.15; A 1.82; K 2.4; S 2.31; L 2.4; H 2.19; P 2.6; G 2.28; I 1.81; R 2.42; W 2.04; E 1.97; Y 2.39
K11: H 2.24; R 3.1; T 2.84; F 3.16; D 2.86; Q 3.58; S 3.53; P 2.72; N 2.42; Y 3.27; G 2.57; L 2.42; W 3.22; I 3.4; A 2.13
N23: W 2.05; L 3.54; V 2.89; S 2.54; K 1.75; A 2.62; G 4.12; Q 3.51; M 1.83; C 3.73; I 2.13
D7: G 2.55; K 1.88; I 3.18; R 1.98; L 2.31; A 2.62; C 2.8; V 2.77

Variants of: B2
Experiment: as above
Conditions: c terminus: a fixed tail appended

Protein stability index, by site and new letter:
S2: P 2.04; N 2.18; G 1.72; A 2.2
S16: T 2.1; C 1.91; R 2.62
E23: M 2.36
E5: N 1.51
K13: P 2.72; Y 3.37; F 1.91; S 2.25
I1: Q 2.64; G 1.86; R 2.41
I17: D 2.47; Q 2
F10: N 2.9
M18: L 2.18; Q 2.75; C 1.81
L15: V 2.09; H 3.17
A20: Y 2.08; K 1.64; P 3.02; T 2.25; Q 2.19
K6: T 1.92; Q 2.06
L8: G 3.44; C 1.96; K 2.47; R 2.38
A24: D 2.5; Q 2.54; S 1.72; C 1.99; V 1.91
E21: N 2.38; D 2.27; S 2.31; M 1.9
Q9: F 2.88; N 2.32; T 1.86; K 2.23
D11: A 2.17; S 2.29; N 2.45; T 1.87
S7: I 1.6; E 1.48; H 2.7
W22: T 2.03; A 2.18; C 1.5; E 4.21
Y4: L 2.33; T 2.5; S 1.77
E3: Q 2.05; T 2.91; V 2.93; I 1.74; C 1.44; G 1.41; K 2.4
L19: E 4.02; A 2.59
E12: D 2.17; A 2.34; F 1.99
C14: G 2.27; S 1.89; H 2.81; A 1.9
